Measured values reported in publication PMC4825002, “Fibromodulin Interacts with Collagen Cross-linking Sites and Activates Lysyl Oxidase*” (The Journal of Biological Chemistry, 2016).

What was measured:
[1] = biological target: T1, recombinant lysyl oxidase protein (Origene) (UniProt P28300 22-417); assay: ELISA; solid-phase assay: FMOD variants coated; serial dilutions of LOX; detected with anti-LOX antibody; apparent KD; conditions: both partners purified
T1 construct: lysyl oxidase; the functional rows use this molecule for it; source: bought: Origene
T1 sequence (looked up): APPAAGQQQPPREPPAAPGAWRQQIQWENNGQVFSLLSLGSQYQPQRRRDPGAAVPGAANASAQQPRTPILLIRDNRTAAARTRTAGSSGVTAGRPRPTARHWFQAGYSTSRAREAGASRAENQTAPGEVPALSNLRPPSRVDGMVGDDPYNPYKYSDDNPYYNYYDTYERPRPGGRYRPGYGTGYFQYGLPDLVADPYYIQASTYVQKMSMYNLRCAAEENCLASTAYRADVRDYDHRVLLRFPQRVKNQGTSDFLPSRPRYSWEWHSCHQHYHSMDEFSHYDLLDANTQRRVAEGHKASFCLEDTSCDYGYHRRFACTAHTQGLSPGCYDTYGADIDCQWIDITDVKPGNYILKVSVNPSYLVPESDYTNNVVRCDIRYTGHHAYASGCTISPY

[2] = biological target: T2, acetic acid-extracted tail tendon mouse collagen I (mouse, UniProt P11087 152-1207; Q01149 86-1125); assay: ELISA; solid-phase assay: collagen coated at 10 μg/ml in PBS; serially diluted FMOD or LOX; detected with anti-His tag or anti-LOX antibodies; apparent KD; conditions: both partners purified
T2 construct: collagen I alpha1 chain, mouse, tissue-extracted; collagen I alpha2 chain, mouse, tissue-extracted; also called collagen type I; full-length collagen; source: extracted from mouse tail tendons using 20 mM acetic acid
T2 sequence (P11087 152-1207, chain 1 of 2): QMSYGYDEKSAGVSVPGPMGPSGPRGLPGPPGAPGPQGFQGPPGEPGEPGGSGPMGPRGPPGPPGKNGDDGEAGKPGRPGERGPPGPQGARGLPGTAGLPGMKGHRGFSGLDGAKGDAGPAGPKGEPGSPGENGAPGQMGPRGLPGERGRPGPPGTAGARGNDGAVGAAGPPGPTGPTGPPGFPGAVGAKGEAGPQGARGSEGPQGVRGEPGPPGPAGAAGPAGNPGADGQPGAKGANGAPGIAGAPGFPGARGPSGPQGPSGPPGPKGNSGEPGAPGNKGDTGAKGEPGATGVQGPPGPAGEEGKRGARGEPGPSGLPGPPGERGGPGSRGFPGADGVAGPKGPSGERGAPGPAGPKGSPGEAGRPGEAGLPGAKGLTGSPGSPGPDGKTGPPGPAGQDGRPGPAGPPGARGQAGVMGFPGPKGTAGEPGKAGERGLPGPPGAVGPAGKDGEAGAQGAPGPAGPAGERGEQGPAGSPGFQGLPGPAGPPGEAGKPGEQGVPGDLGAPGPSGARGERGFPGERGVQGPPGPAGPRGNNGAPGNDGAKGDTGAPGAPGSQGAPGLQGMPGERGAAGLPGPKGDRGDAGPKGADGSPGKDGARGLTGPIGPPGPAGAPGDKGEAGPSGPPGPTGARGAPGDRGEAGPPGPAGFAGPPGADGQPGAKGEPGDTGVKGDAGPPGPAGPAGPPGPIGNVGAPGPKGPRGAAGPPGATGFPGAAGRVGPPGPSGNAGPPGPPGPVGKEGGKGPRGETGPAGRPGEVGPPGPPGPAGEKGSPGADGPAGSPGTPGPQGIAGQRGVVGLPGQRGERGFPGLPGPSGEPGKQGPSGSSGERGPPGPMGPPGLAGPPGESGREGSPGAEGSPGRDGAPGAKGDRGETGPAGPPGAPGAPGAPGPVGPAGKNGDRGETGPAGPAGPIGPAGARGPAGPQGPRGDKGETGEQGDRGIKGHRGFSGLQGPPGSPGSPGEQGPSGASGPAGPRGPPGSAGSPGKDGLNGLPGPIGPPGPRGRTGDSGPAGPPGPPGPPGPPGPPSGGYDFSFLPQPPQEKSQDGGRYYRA
T2 sequence (Q01149 86-1125, chain 2 of 2): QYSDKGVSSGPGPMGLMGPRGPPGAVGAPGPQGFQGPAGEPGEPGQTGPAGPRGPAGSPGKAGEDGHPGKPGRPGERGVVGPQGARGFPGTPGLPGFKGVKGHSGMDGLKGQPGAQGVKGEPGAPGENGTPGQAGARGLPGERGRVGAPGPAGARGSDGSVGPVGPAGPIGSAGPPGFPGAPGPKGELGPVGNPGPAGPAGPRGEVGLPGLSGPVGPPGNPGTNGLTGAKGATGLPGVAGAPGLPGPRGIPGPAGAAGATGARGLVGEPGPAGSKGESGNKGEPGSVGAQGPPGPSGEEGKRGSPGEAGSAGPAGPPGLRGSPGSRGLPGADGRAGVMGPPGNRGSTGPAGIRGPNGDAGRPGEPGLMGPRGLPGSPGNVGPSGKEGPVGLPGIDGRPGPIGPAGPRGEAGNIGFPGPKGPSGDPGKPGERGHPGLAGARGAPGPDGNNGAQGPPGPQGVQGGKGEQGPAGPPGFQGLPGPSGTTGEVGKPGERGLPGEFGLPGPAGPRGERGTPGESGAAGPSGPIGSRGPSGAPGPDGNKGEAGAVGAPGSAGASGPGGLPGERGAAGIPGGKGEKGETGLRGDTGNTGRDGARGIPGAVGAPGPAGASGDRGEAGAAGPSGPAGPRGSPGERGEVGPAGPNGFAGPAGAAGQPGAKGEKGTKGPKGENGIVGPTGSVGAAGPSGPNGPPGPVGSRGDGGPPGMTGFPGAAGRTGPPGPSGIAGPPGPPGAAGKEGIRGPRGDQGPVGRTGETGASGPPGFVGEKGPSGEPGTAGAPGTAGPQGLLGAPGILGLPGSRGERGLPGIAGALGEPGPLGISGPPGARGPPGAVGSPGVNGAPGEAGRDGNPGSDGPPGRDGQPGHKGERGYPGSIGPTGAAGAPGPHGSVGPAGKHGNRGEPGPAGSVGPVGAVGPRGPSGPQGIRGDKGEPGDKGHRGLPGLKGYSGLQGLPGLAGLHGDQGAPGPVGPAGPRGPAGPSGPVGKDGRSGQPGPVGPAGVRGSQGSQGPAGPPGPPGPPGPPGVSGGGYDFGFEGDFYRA

Kd [1]: ~150 nM
Kd [2]: ~250 nM
B1: His tag-modified recombinant fibromodulin (human, amino acids 19–376) (natural protein, UniProt Q06828 19-376, looked up)
chain: QYEDDPHWWFHYLRSQQSTYYDPYDPYPYETYEPYPYGVDEGPAYTYGSPSPPDPRDCPQECDCPPNFPTAMYCDNRNLKYLPFVPSRMKYVYFQNNQITSIQEGVFDNATGLLWIALHGNQITSDKVGRKVFSKLRHLERLYLDHNNLTRMPGPLPRSLRELHLDHNQISRVPNNALEGLENLTALYLQHNEIQEVGSSMRGLRSLILLDLSYNHLRKVPDGLPSALEQLYMEHNNVYTVPDSYFRGAPKLLYVRLSHNSLTNNGLASNTFNSSSLLELDLSYNQLQKIPPVNTNLENLYLQGNRINEFSISSFCTVVDVVNFSKLQVLRLDGNEIKRSAMPADAPLCLRLASLIEI
modifications: tyrosine sulfation (positions not given)
notes: fibromodulin, human, amino acids 19-376; also called FMOD; full-length FMOD; source: 293T cells (pCEP4 vector), purified (Ni-NTA-Sepharose, Superose 6)
